# Data reported in US20150057236.
# Marks after values point to notes of the source that are not given here.
# Legend:
# [1] = biological target: GDH K503 (498-509 + WW) succinyl peptide (UniProt P00367)
# [2] = tested on: ACS2 K628 (623-632 + WW) malonyl peptide
# [3] = tested on: ACS2 K628 (623-632 + WW) acetyl peptide
# [4] = biological target: H3 K9 (4-13 + WW) acetyl peptide (UniProt P68431)
# [5] = biological target: H3 K9 (4-13 + WW) malonyl peptide (UniProt P68431)
# [6] = tested on: ACS2 K628 (623-632 + WW) succinyl peptide
# [7] = biological target: H3 K9 (4-13 + WW) succinyl peptide (UniProt P68431)
# [8] = biological target: GDH K503 (498-509 + WW) acetyl peptide (UniProt P00367)
# [9] = biological target: GDH K503 (498-509 + WW) malonyl peptide (UniProt P00367)
# Chain of human Sirt5 (chain, as listed by the source): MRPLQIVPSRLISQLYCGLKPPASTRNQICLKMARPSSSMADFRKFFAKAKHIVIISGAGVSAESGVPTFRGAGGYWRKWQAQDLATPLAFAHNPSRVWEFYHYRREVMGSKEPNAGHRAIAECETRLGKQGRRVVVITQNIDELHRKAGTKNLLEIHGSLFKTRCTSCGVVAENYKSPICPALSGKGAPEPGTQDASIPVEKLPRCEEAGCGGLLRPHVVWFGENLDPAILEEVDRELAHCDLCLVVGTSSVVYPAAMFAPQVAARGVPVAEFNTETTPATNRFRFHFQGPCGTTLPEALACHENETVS
# Chain of Sirt5 Y102F (chain, as listed by the source Y102F): as the sequence (chain, as listed by the source) above, with Y102F counted along it
# Chain of Sirt5 R105M (chain, as listed by the source R105M): as the sequence (chain, as listed by the source) above, with R105M counted along it
# Chain of Sirt5 H158Y (chain, as listed by the source H158Y): as the sequence (chain, as listed by the source) above, with H158Y counted along it
substance,measurement,setting,value
human Sirt5,"Km for peptide (µM), desuccinylation",H3K9 succinyl peptide,41 µM
same,hydrolysis of acyl peptide (LC-MS),H3K9 succinyl peptide,the malonyl and succinyl peptides were hydrolyzed significantly
same,"kcat (s^-1), desuccinylation",H3K9 succinyl peptide,0.029 s⁻¹
same,"kcat/Km (s^-1M^-1), desuccinylation",H3K9 succinyl peptide,710 s^-1M^-1
same,"Peptide Km (µM), desuccinylation",[1],14 µM
same,"kcat (s^-1), desuccinylation",[1],0.028 s⁻¹
same,"kcat/Km (s^-1M^-1), desuccinylation",[1],2000 s^-1M^-1
same,"Peptide Km (µM), demalonylation",[2],150 µM
same,"kcat (s^-1), demalonylation",[2],0.079 s⁻¹
same,"kcat/Km (s^-1M^-1), demalonylation",[2],520 s^-1M^-1
same,"Peptide Km (µM), deacetylation",[3],ND (>750)
same,"kcat/Km (s^-1M^-1), deacetylation",[3],18 s^-1M^-1
same,"Peptide Km (µM), deacetylation",[4],ND (>750)
same,"kcat/Km (s^-1M^-1), deacetylation",[4],7.8 s^-1M^-1
same,"Peptide Km (µM), demalonylation",[5],6.1 µM
same,"kcat (s^-1), demalonylation",[5],0.037 s⁻¹
same,"kcat/Km (s^-1M^-1), demalonylation",[5],6100 s^-1M^-1
same,"Peptide Km (µM), desuccinylation",[6],450 µM
same,"kcat (s^-1), desuccinylation",[6],0.268 s⁻¹
same,"kcat/Km (s^-1M^-1), desuccinylation",[6],600 s^-1M^-1
same,"Peptide Km (µM), desuccinylation",[7],5.8 µM
same,"kcat (s^-1), desuccinylation",[7],0.025 s⁻¹
same,"kcat/Km (s^-1M^-1), desuccinylation",[7],4300 s^-1M^-1
same,"Peptide Km (µM), deacetylation",[8],ND (>750)
same,"kcat/Km (s^-1M^-1), deacetylation",[8],< 2 s^-1M^-1
same,"percent hydrolysis in 3 hrs, 1 µM Sirt5 (HPLC)",KQTAR(SuK)-AMC peptide,10% and 60% hydrolysis by 1 and 5 µM of Sirt5 in 3 hrs
same,"percent hydrolysis in 3 hrs, 5 µM Sirt5 (HPLC)",KQTAR(SuK)-AMC peptide,10% and 60% hydrolysis by 1 and 5 µM of Sirt5 in 3 hrs
same,"Peptide Km (µM), demalonylation",[9],8.7 µM
same,"kcat (s^-1), demalonylation",[9],0.014 s⁻¹
same,"kcat/Km (s^-1M^-1), demalonylation",[9],1600 s^-1M^-1
same,Km for acetyl peptide (µM),H3K9 acetyl peptide,ND (>750)*
same,"Km for peptide (µM), deacetylation",H3K9 acetyl peptide,ND (>750)*
same,hydrolysis of acyl peptide (LC-MS),H3K9 acetyl peptide,"with Sirt5, very little hydrolysis of the acetyl peptide was observed"
same,kcat/Km (s^-1M^-1),H3K9 acetyl peptide,2 s^-1M^-1
same,"kcat/Km (s^-1M^-1), deacetylation",H3K9 acetyl peptide,2 s^-1M^-1
same,hydrolysis of acyl peptide (LC-MS),H3K9 malonyl peptide,the malonyl and succinyl peptides were hydrolyzed significantly
human Sirt6,hydrolysis of acyl peptide (LC-MS),H3K9 succinyl peptide,"Sirt6 and Sirt7 have no detectable activity on acetyl, malonyl, or succinyl peptides under the conditions tested"
same,hydrolysis of acyl peptide (LC-MS),H3K9 acetyl peptide,"Sirt6 and Sirt7 have no detectable activity on acetyl, malonyl, or succinyl peptides under the conditions tested"
same,hydrolysis of acyl peptide (LC-MS),H3K9 malonyl peptide,"Sirt6 and Sirt7 have no detectable activity on acetyl, malonyl, or succinyl peptides under the conditions tested"
Sirt5 R105M,"Km for peptide (µM), desuccinylation",H3K9 succinyl peptide,ND (>750)*
same,"kcat/Km (s^-1M^-1), desuccinylation",H3K9 succinyl peptide,0.9 s^-1M^-1
same,"Km for peptide (µM), deacetylation",H3K9 acetyl peptide,ND (>750)*
same,"kcat/Km (s^-1M^-1), deacetylation",H3K9 acetyl peptide,0.5 s^-1M^-1
Sirt5 H158Y,"Km for peptide (µM), desuccinylation",H3K9 succinyl peptide,ND (>750)*
same,"kcat/Km (s^-1M^-1), desuccinylation",H3K9 succinyl peptide,75 s^-1M^-1
Sirt5 Y102F,"Km for peptide (µM), desuccinylation",H3K9 succinyl peptide,ND (>750)*
same,"kcat/Km (s^-1M^-1), desuccinylation",H3K9 succinyl peptide,397 s^-1M^-1
same,"Km for peptide (µM), deacetylation",H3K9 acetyl peptide,ND (>750)*
same,"kcat/Km (s^-1M^-1), deacetylation",H3K9 acetyl peptide,2 s^-1M^-1
